The text below walks through data of CN111072775A (OLYMVAX BIOPHARMACEUTICALS INC; UNIV ARMY MEDICAL, dated 2020).

This experiment concerns the target T1, MntC蛋白 (锰离子转运蛋白C亚单位, 重组MntC蛋白) (金黄色葡萄球菌 (Staphylococcus aureus)).
T1 construct: Recombinant MntC used as immunogen and as ELISA coating antigen; also called MntC重组蛋白; MntC蛋白标准品
T1 chain: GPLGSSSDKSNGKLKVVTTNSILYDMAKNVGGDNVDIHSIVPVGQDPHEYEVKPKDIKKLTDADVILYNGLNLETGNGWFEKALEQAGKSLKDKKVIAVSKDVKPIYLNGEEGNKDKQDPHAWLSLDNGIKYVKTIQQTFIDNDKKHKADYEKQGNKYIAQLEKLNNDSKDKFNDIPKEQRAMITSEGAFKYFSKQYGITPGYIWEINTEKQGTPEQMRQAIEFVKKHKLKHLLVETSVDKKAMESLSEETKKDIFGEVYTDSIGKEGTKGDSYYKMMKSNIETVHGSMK
Put plainly: ELISA on MntC with HRP-labelled antibody. In general terms: An ELISA detects its analyte on a solid surface through an enzyme-linked reagent.

B1: HRP标记的抗体3F6 (antibody, V domains shown)
VH: VQLQQSGPSLVKPSQTLSLTCSVTGDSITNGYWNWIRKFPGNKLEYMGYISYSGTTYYNPSLKSRISITRDTSKNQYYLQLNSVTTEDTATYYCSRIRPYRHLGFDYWGQGTTVTVSS
VL: DIVMTQTPASLAVSLGQRATISCKASQSVDYGGDSYMNWYQQKPGQPPKLLIYAASNLESGIPARFSGSGSGTDFTLNIHPVEEEDGATYYCQQSNEDPWTFGGGTKLEIK
modifications: HRP label by the sodium periodate oxidation method; chain and site not stated
notes: also called HRP标记抗体 (3F6)
As for B1, the binding result is “binds”.

B2: HRP标记的抗体3C10 (antibody, V domains shown)
VH: VKLQESGPSLVKPSQTLSLTCSVTGDSITNGYWNWIRKFPGNKLEYMGYISYSGTTYYNPSLKSRISITRDTSKNQYYLQLNSVTTEDTATYYCSRIRPYRHLGFDYWGQGTTVTVSS
VL: DIVMTQSTASLAVSLGQRATISCKASQSVDYGGDSYMNWYQQKPGQPPKLLIYAASNLESGIPARFSGSGSGTDFTLNIHPVEEEDGATYYCQQSNEDPWTFGGGTKLEIK
modifications: HRP label by the sodium periodate oxidation method; chain and site not stated
notes: also called HRP标记抗体 (3C10); 酶结合物(抗体3C10)
As for B2, the binding result is “binds”.
